According to patent publication US6114132A, “Prosphatase binding assay” (Merck Frosst Canada & Co., priority 1997, dated 2000):
Substitutions are numbered along the chain they refer to. Blank lines part the entries; values can stand above or below the molecule they belong to. Square brackets hold non-standard residues; d marks the D form. Peptide text beside a SMILES is read from it. * marks the point of attachment. F2Pmp = N[C@@H](Cc1ccc(C(F)(F)P(=O)(O)O)cc1)C(=O)O; Bz = O=C(c1ccccc1)*

Experiments:
[1] = target: GST-PTP1B, mutated (Ser215): GST-PTP-1B Cys215Ser mutant, human PTP1B amino acids 1-320 fused to GST (human); experiment: SPA competition binding assay against tritiated BzN-EJJ-CONH2, GST-PTP1B mutated (Ser215)
[2] = target: GST-PTP1B, non-mutated (Cys215): human recombinant PTP1B amino acids 1-320 fused to GST enzyme (glutathione S-transferase) (human); experiment: SPA competition binding assay against tritiated BzN-EJJ-CONH2, GST-PTP1B non-mutated (Cys215)
[3] = target: T1, human recombinant GST-PTP1B, mutated (Ser215) (Homo sapiens, UniProt P18031, C215S); experiment: GST-PTP1B SPA binding assay with mutated enzyme (Ser215)
T1 construct: Human recombinant PTP1B, containing amino acids 1-320; made in house; host or cells: bacteria (E. coli DH5alpha named for the transformation)
T1 sequence (P18031 1-320 C215S): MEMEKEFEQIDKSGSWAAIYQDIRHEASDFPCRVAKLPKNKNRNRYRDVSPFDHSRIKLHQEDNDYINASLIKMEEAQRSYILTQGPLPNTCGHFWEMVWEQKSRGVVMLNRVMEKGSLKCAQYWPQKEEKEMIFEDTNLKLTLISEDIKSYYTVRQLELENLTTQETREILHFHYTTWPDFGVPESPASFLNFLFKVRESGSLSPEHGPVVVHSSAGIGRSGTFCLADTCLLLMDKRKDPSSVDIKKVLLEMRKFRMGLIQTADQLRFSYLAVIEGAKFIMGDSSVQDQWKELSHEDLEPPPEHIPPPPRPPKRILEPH
Method: (§1) ID No. 7) contains active site serine(215).
(§2) IC50 Binding Assay Protocol
(§3) To each well is added the following solutions @ 25° C. in the following chronological order:
(§4) 1. 110 μl of assay buffer.
(§5) 3. 10 μl. of testing compound in DMSO at 10 different concentrations in serial dilution (final DMSO, about 5% v/v) in duplicate @ 25° C.
(§6) 4. 10 μl. of 3.75 μg/ml purified human recombinant GST-PTP1B in enzyme dilution buffer.
(§7) 5. The plate is shaken for 2 minutes.
(§8) 6. 10 μl. of 0.3 μg/ml anti-glutathione S-transferase (anti-GST) rabbit IgG (Molecular Probes) diluted in antibody dilution buffer @ 25° C.
(§9) 7. The plate is shaken for 2 minutes.
(§10) 8. 50 μl. of protein A-PVT SPA beads (Amersham) @ 25° C.
(§11) 9. The plate is shaken for 5 minutes. The binding signal is quantified on a Microbeta 96-well plate counter.
(§12) 10. The non-specific signal is defined as the enzyme-ligand binding in the absence of anti-GST antibody.
(§13) 11. 100% binding activity is defined as the enzyme-ligand binding in the presence of anti-GST antibody, but in the absence of the testing ligands with the non-specific binding subtracted.
(§14) 12. Percentage of inhibition is calculated accordingly.
(§15) 13. IC50 value is approximated from the non-linear regression fit with the 4-parameter/multiple sites equation (described in: "Robust Statistics", New York, Wiley, by P. J. Huber (1981) and reported in nM units.

PTP1B = experiment: inhibition of PTP1B; assay type: biochemical; details: type of constant not stated
[4] = target: T2, human recombinant GST-PTP1B, non-mutated (Cys215) (Homo sapiens, UniProt P18031); experiment: GST-PTP1B SPA binding assay with non-mutated (Cys215) enzyme; details: read-out: % inhibition, Non-Mutated
T2 construct: Human recombinant PTP1B, containing amino acids 1-320; made in house; host or cells: E. coli
T2 sequence (P18031 1-320): T1 sequence (P18031 1-320 C215S) with S215C
Method: as §1, §2, §3, §4, §5, §6, §7, §8, §9, §10, §11, §12, §13, §14, §15

[5] = phosphatase activity of expressed PTP-1B constructs; assay type: biochemical; details: expressed (E. coli for GST-PTP-1B) protein
Description: The full length human PTP-1B cDNA sequence (published in J. Chernoff et al., PNAS, USA, supra) cloned into a PET vector was obtained from Dr. Raymond Erickson (Harvard University). The PTP-1B CDNA sequence encoding amino acids 1-320 (Seq. ID No. 1) was amplified by PCR using the full length sequence as template. […] The amplified fragment was cloned into pCR2 (Invitrogen) and sequenced to insure that no sequence errors had been introduced by Taq polymerase during the amplification. This sequence was released from pCR2 by a Bam HI/Eco RI digest and the PTP-1B cDNA fragment ligated into the GST fusion vector pGEX-2T (Pharmacia) that had been digested with the same enzymes. […] This same 1-320 PTP-1B sequence (Seq. ID No. 1) was then cloned into the expression vector pFLAG-2, where FLAG is the octa-peptide […] This was done by releasing the PTP-1B sequence from the pGEX-2T vector by Nco I/Eco RI digest, filling in the ends of this fragment by Klenow and blunt-end ligating into the blunted Eco RI site of pFLAG2. Site-directed mutagenesis was performed on pFLAG2-PTP-1B plasmid using the Chameleon (Stratagene) double-stranded mutagenesis kit from Stratagene, to replaced the active-site Cys-215 with serine. The mutagenesis was carried out essentially as described by the manufacturer and mutants identifed by DNA sequencing. […]

[6] = target: PTP1B tyrosine phosphatase (construct not stated) (human)
[7] = target: T3, GST-PTP1B, non-mutated (Cys215): human recombinant PTP1B amino acids 1-320 fused to GST enzyme (glutathione … (human)); experiment: SPA competition binding assay against tritiated BzN-EJJ-CONH2, GST-PTP1B non-mutated (Cys215)
T3 chain: T1 sequence (P18031 1-320 C215S) with S215C
Method: 1. 110 μl of assay buffer. 2. […] 3. 10 μl. of testing compound in DMSO at 10 different concentrations in serial dilution (final DMSO, about 5% v/v) in duplicate @ 25° C. 4. 10 μl. of 3.75 μg/ml purified human recombinant GST-PTP1B in enzyme dilution buffer. 5. The plate is shaken for 2 minutes. 6. 10 μl. of 0.3 μg/ml anti-glutathione S-transferase (anti-GST) rabbit IgG (Molecular Probes) diluted in antibody dilution buffer @ 25° C. 7. The plate is shaken for 2 minutes. 8. 50 μl. of protein A-PVT SPA beads (Amersham) @ 25° C. 9. The plate is shaken for 5 minutes. The binding signal is quantified on a Microbeta 96-well plate counter. 10. The non-specific signal is defined as the enzyme-ligand binding in the absence of anti-GST antibody. 11. 100% binding activity is defined as the enzyme-ligand binding in the presence of anti-GST antibody, but in the absence of the testing ligands with the non-specific binding subtracted. 12. Percentage of inhibition is calculated accordingly.

[8] = read-out: % inhibition, Mutated

IC50 [1]: 100 nM
IC50 [2]: 400 nM
Molecule: DADE(F2PMP)L hexapeptide

Molecule: NC(=O)[C@H](Cc1ccc(C(F)(F)P(=O)(O)O)cc1)NC(=O)[C@H](Cc1ccc(C(F)(F)P(=O)(O)O)cc1)NC(=O)[C@H](CCC(=O)O)NC(=O)c1ccccc1 [BzN-EJJ-CONH2, N-Benzoyl-L-glutamyl-[4-phosphono(difluoromethyl)]-L-phenylalanyl-[4-phosphono(difluoromethyl)]-L-phenylalanineamide] (Bz-Glu-[F2Pmp]-[F2Pmp]-NH2)
binding of substrate analog to mutated enzyme ([3]; mutated enzyme, truncated, amino acids 1-320): high affinity
active inhibitor of PTP1B (PTP1B): 5 nM

Molecule: COc1cc(OC)c(OC)cc1CCN=CCc1ncc[nH]1 [Amine]
inhibition at 2 µM [3, 8]: 10%
inhibition at 2 µM [4]: 67%

Molecule: OO [Hydrogen peroxide]
inhibition at 83 µM [3, 8]: 0%
inhibition at 83 µM [4]: 90%

B1: GST-PTP-1B fusion protein: PTP-1B amino acids 1-320 fused to GST, expressed in E. Coli (protein)
chain: T1 sequence (P18031 1-320 C215S) with S215C
phosphatase activity [5]: active protein tyrosine phosphatase activity

B2: FLAG-PTP-1B Cys215Ser mutant: FLAG-tagged PTP-1B with active-site Cys-215 replaced with serine (Seq. ID No. 7) (protein, UniProt P18031 1-435, looked up, variant C215S)
Tyrosine-protein phosphatase …: MEMEKEFEQIDKSGSWAAIYQDIRHEASDFPCRVAKLPKNKNRNRYRDVSPFDHSRIKLHQEDNDYINASLIKMEEAQRSYILTQGPLPNTCGHFWEMVWEQKSRGVVMLNRVMEKGSLKCAQYWPQKEEKEMIFEDTNLKLTLISEDIKSYYTVRQLELENLTTQETREILHFHYTTWPDFGVPESPASFLNFLFKVRESGSLSPEHGPVVVHSSAGIGRSGTFCLADTCLLLMDKRKDPSSVDIKKVLLEMRKFRMGLIQTADQLRFSYLAVIEGAKFIMGDSSVQDQWKELSHEDLEPPPEHIPPPPRPPKRILEPHNGKCREFFPNHQWVKEETQEDKDCPIKEEKGSPLNAAPYGIESMSQDTEVRSRVVGGSLRGAQAASPAKGEPSLPEKDEDHALSYWKPFLVNMCVATVLTAGAYLCYRFLFNSNT
modifications: FLAG tag
phosphatase activity [5]: not to have any phosphatase activity

inhibitor of PTP1B [6]: 5 nM
IC50 [1]: 8 nM
IC50 [7]: 14 nM
Molecule: Bz-Glu-[F2Pmp]-[F2Pmp]-NH2
